Data on four molecules can be found in article doi:10.1101/2022.07.12.499507 (bioRxiv, 2022).

In one assay the target is T1, Epl1 (Saccharomyces cerevisiae, UniProt P43572 1-832).
T1 sequence: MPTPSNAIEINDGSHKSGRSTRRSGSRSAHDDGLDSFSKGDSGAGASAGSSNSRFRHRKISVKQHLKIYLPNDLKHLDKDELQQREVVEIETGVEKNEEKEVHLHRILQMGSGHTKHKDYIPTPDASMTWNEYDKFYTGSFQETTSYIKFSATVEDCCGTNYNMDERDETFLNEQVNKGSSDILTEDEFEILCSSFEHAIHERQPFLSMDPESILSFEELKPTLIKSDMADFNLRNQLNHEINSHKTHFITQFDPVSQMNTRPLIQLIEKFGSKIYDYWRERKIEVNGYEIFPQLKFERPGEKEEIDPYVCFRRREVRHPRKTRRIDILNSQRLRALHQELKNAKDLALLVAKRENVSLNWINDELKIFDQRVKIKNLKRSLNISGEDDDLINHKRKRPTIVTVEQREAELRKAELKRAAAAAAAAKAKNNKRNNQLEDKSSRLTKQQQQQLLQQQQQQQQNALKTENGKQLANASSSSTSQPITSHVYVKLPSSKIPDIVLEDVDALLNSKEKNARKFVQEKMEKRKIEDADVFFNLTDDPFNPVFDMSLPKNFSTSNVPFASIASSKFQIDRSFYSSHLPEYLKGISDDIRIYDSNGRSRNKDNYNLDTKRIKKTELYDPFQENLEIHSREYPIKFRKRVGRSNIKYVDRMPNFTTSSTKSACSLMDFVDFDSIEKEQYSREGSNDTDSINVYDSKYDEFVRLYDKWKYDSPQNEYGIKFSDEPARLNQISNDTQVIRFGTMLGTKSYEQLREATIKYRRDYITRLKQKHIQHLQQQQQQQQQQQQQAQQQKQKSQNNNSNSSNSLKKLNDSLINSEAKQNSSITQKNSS
Description: cryo-EM structure.

For another assay, the target named is Tra1 (Saccharomyces cerevisiae, UniProt P38811 1-3744). The experiment in a line: cross-linking.
Chain of Tra1 (P38811 whole entry): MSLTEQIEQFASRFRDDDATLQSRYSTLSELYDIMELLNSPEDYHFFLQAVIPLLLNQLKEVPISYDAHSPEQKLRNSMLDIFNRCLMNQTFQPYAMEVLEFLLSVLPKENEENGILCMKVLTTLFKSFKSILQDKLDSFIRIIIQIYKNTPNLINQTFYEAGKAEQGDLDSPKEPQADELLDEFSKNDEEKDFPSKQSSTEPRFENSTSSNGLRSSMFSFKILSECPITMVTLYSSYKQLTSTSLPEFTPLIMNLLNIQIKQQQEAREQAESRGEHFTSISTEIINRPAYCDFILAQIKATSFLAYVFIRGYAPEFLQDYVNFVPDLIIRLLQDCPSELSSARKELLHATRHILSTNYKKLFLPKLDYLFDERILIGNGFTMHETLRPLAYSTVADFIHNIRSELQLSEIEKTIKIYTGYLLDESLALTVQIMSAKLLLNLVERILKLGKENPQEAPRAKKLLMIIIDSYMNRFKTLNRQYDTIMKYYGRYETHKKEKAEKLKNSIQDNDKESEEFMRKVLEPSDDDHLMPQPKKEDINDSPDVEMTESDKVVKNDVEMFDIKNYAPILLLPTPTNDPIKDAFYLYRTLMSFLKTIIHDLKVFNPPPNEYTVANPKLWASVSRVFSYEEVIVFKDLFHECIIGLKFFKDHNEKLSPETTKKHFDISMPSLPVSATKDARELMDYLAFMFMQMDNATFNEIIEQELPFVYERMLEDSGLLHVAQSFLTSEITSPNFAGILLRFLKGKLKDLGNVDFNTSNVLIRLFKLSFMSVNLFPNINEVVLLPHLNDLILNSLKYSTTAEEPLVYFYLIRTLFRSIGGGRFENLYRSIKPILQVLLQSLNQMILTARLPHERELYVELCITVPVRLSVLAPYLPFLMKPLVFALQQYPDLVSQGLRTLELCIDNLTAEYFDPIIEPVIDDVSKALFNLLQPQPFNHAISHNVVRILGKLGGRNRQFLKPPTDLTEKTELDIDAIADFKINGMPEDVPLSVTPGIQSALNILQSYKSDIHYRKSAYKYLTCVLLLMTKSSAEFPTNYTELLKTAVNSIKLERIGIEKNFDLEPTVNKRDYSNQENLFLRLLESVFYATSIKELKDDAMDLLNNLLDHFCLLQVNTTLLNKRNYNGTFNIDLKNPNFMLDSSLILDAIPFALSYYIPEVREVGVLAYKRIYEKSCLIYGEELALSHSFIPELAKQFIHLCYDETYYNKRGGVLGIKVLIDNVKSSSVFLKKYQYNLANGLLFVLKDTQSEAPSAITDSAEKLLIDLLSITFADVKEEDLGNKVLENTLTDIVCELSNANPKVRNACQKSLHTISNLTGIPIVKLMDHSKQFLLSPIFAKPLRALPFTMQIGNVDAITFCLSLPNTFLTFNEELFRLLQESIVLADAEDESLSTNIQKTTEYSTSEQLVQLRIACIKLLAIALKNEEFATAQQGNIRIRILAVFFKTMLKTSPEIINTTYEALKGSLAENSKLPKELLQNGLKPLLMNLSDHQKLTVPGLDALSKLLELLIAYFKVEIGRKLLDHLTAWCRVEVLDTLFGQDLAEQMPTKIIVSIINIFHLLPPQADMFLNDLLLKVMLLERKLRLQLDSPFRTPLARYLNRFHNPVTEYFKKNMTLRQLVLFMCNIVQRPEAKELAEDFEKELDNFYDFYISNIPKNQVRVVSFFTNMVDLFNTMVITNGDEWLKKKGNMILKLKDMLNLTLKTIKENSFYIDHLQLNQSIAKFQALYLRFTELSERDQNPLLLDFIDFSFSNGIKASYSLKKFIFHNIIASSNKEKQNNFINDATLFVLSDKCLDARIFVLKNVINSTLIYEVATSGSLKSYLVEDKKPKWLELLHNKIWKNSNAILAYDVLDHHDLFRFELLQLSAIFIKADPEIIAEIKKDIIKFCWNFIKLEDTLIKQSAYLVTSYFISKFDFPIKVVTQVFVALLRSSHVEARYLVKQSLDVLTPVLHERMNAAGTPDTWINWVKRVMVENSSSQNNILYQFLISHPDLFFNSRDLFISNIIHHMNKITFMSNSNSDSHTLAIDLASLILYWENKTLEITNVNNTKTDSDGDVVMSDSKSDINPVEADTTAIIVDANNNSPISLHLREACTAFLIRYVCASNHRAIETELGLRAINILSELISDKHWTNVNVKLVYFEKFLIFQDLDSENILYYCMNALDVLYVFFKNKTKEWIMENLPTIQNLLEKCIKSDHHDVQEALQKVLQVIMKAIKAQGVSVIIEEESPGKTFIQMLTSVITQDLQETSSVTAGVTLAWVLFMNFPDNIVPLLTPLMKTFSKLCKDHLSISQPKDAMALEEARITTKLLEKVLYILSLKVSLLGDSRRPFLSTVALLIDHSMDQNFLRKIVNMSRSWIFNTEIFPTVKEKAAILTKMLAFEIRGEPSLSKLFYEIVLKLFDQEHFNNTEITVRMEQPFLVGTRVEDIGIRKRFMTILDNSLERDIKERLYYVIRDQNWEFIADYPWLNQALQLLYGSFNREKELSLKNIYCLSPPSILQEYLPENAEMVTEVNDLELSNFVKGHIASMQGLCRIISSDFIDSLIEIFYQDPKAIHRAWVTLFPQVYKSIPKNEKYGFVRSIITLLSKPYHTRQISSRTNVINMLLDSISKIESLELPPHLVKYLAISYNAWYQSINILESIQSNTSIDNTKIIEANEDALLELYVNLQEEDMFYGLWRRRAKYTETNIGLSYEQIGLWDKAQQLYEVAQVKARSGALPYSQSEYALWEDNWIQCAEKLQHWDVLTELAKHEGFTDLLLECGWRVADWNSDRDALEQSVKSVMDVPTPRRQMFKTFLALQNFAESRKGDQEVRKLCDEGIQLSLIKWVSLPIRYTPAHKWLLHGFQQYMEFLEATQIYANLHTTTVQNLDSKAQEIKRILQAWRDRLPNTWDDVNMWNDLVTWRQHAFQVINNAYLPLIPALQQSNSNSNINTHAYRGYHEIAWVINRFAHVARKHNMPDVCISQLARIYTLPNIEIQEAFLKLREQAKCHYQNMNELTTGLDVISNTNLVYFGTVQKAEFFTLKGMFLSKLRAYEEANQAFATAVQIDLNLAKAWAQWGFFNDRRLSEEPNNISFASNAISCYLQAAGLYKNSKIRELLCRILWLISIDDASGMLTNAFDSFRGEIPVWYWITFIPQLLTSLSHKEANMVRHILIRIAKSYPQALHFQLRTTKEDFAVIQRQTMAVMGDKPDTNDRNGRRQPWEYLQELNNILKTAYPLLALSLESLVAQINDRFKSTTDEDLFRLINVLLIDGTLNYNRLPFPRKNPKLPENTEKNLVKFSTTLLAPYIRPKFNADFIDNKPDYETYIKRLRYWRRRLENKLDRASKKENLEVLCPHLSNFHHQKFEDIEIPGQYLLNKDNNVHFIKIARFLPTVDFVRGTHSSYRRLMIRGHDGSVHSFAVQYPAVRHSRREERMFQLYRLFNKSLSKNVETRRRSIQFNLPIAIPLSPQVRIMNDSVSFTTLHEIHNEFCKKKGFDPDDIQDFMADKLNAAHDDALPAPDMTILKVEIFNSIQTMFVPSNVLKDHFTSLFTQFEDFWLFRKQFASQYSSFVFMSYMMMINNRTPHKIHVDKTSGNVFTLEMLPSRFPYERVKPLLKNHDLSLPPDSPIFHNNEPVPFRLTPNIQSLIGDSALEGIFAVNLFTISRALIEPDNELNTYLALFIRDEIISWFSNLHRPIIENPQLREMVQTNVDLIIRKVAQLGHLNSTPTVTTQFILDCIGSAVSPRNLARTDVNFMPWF

B1: Esa1 (enzyme)
chain: MSHDGKEEPGIAKKINSVDDIIIKCQCWVQKNDEERLAEILSINTRKAPPKFYVHYVNYNKRLDEWITTDRINLDKEVLYPKLKATDEDNKKQKKKKATNTSETPQDSLQDGVDGFSRENTDVMDLDNLNVQGIKDENISHEDEIKKLRTSGSMTQNPHEVARVRNLNRIIMGKYEIEPWYFSPYPIELTDEDFIYIDDFTLQYFGSKKQYERYRKKCTLRHPPGNEIYRDDYVSFFEIDGRKQRTWCRNLCLLSKLFLDHKTLYYDVDPFLFYCMTRRDELGHHLVGYFSKEKESADGYNVACILTLPQYQRMGYGKLLIEFSYELSKKENKVGSPEKPLSDLGLLSYRAYWSDTLITLLVEHQKEITIDEISSMTSMTTTDILHTAKTLNILRYYKGQHIIFLNEDILDRYNRLKAKKRRTIDPNRLIWKPPVFTASQLRFAW
As for B1, the binding result in the assay with Epl1 is recorded as “binds”.

B2: Gal4-VP16 fusion protein (other)
chain: MKLLSSIEQACDICRLKKLKCSKEKPKCAKCLKNNWECRYSPKTKRSPLTRAHLTEVESRLERLEQLFLLIFPREDLDMILKMDSLQDIKALLTGLFVQDNVNKDAVTDRLASVETDMPLTLRQHRISATSSSEESSNKGQRQLTVSAPPTDVSLGDELHLDGEDVAMAHADALDDFDLDMLGDGDSPGPGFTPHDSAPYGALDMADFEFEQMFTDALGIDEYGG
Turning to B2, the binding result in the assay with Tra1 is “binds”.

B3: Yng2 (natural protein)
chain: MDPSLVLEQTIQDVSNLPSEFRYLLEEIGSNDLKLIEEKKKYEQKESQIHKFIRQQGSIPKHPQEDGLDKEIKESLLKCQSLQREKCVLANTALFLIARHLNKLEKNIALLEEDGVLAPVEEDGDMDSAAEASRESSVVSNSSVKKRRAASSSGSVPPTLKKKKTSRTSKLQNEIDVSSREKSVTPVSPSIEKKIARTKEFKNSRNGKGQNGSPENEEEDKTLYCFCQRVSFGEMVACDGPNCKYEWFHYDCVNLKEPPKGTWYCPECKIEMEKNKLKRKRN
Turning to B3, the binding result in the assay with Epl1 is listed as “binds”.

B4: Eaf1 (natural protein)
chain: MSSRPSSAVPNSASLSEDQSSDRSKFPKADDLIDERDRKLTELYCVSRLNQLLELTDENKLRKEIDAFLKKNDIRRGIRFDEASLPKLLHTAATPITKKKLKDVNLINVPNQRLSDSKMSRELPENSENVSVKSESHFVPSHDNSIRENMMDSLRPAEKTGGMWNKRPLESTMGGEEERHEKRQKMQSQSLESSNNSEMASLPISPRPPVPNALAHYTYYENIEYPPADPTEVQPAVKFKDPLIKNIMAKEIDTSDHYNENNVDALETVFLLMNDYIPSKIPQALPLAELKYMSQTLPLINLIPRAHKALTTNIINNALNEARITVVGSRIEELRRLGLWSLRQPKRFIDPWKQHNTHQNILLEEAKWMQADFKEGHKYKVAICTAMAQAIKDYWTYGEICCVKRKTLLPGKENKLSDDGRISEKSGRPSDTSRNDSDISIAGKDDIGIIANVDDITEKESAAANDNDENGKNEAGAKSDFDFADGLLSQEGAHDQIISSIDTKLLLKKPSSSSEVVLIQHEVAASSALIETEESKKELAPPFKLSIFVDELNTFEKTLIQDLPLYNGINEERPKKDDSLPFIPISKSVVSLDDNGFYKLLERQLIDEEPSISQLSKRRGMFYGNRRNHYLRPPAVPSLRYLQNRTPTIWLSEDDQELVKNINTYGYNWELISAHMTHRLTYSYLSNIERRTPWQCFERFVQLNERFNFSDLKGPRAHSAQQWLIEAHKFQQRQNRRISPLGVNTESIQRGHRRLRWASMFEAIRKCMKKRENTPRPNPTQPRKPLDCKNMKVPTPAEMSLLKAQRDEALRRDIQLRRTVKNRLQQRQQQSQQAHSSRAQSPIPSNGKSSSNLARNGQASAPRPNQKQYTEQDIIESYSRKLLEQKPDIGPEMALKAAKNYYRTLREQQQQLKQHQIQQQRQQLQEESSHVQQLQQLQPGSQAPPPKSSPSQSSLSNISNINSAPRIKSPTPQEILQRFQKQ
In the case of B4, the binding result in the assay with Tra1 is listed as “binds”.
